Source: patent US20240377408A1

Experiments:
Assay in all cases: cell-based or functional assay
[1] = target: M64-LAEIR
[2] = target: M64-AAEIR
[3] = target: M64-FAEIR
[4] = target: M64-EAEIR
[5] = target: M64-DAEIR
[6] = target: human carbonic anhydrase 2 (wild-type hCAII) (Homo sapiens) (UniProt P00918)

| IC50 values (µM), colorimetric pNPA hydrolysis inhibition assay [1] [µM] | IC50 values (µM), colorimetric pNPA hydrolysis inhibition assay [2] [µM] | IC50 values (µM), colorimetric pNPA hydrolysis inhibition assay [3] [µM] | IC50 values (µM), colorimetric pNPA hydrolysis inhibition assay [4] [µM] | IC50 values (µM), colorimetric pNPA hydrolysis inhibition assay [5] [µM] | IC50 (µM), hCAII functional assay (p-nitrophenyl acetate hydrolysis) [6] [µM] | Substance |
| --- | --- | --- | --- | --- | --- | --- |
| 0.016 | 0.109 | 0.012 | 1.09 | 0.136 |  | Carbonic anhydrase I, Homo sapiens (scaffold) (from UniProt P00915 5-261) (enzyme) |
|  |  |  |  |  | 152 | FAAAE (peptide) |
